Measurements taken from patent US20220273789A1.
Values joined by “and” are separate entries in the source; they are usually repeats but may differ in a detail not shown here. Equal values may be shown once. Read-outs that look alike come from different tables or passages of the source.

What was measured:
[1] = biological target: human IgG (human); experiment: BLI (Octet), gEgI on Ni-NTA sensor, hIgG in solution
[2] = biological target: human IgG (human); experiment: BLI Octet, construct on Ni-NTA sensor, hIgG in solution
[3] = biological target: human IgG (human); experiment: BLI (Octet), gEgI on Ni-NTA sensor, hIgG in solution; remark: listed apart in the source
[4] = biological target: Human IgG isotype control (ThermoFischer Scientific, ref 12000C) (human); experiment: BLI, gEgI on Ni-NTA tips, hIgG in solution

HSV2-gE_A246W R320G_gI (from UniProt P89475 21-416; P06764 21-256) (receptor)
Kd [1]: 0.001 nM
Response [1]: 0.0639 nm
Kd [2]: < 0.001 nM
Response (nm) [2]: 0.0639 nm
koff [2]: < 1e-07 s⁻¹
kon [2]: 3430 M⁻¹ s⁻¹

HSV2-gE_A246W R320T_gI (from UniProt P89475 21-416; P06764 21-256) (receptor)
Kd [1]: 0.001 nM
Response [1]: 0.0712 nm
Kd [2]: < 0.001 nM
Response (nm) [2]: 0.0712 nm
koff [2]: < 1e-07 s⁻¹
kon [2]: 1510 M⁻¹ s⁻¹

HSV2-gE_A246W-R320D_gI (from UniProt P89475 21-416; P06764 21-256) (receptor)
Kd [1]: 0.001 nM
Response [1]: 0.0712 nm

HSV2-gE_A246W_gI (from UniProt P89475 21-416; P06764 21-256) (receptor)
Kd [1]: 6910 nM
Response [1]: 0.231 nm
Kd [2]: 6910 nM
Response (nm) [2]: 0.231 nm
koff [2]: 0.00621 s⁻¹
kon [2]: 898 M⁻¹ s⁻¹

HSV2-gE_A248G V340W_gI (from UniProt P89475 21-416; P06764 21-256) (receptor)
Kd [1]: 39200 nM
Response [1]: 0.0826 nm
Kd [2]: 39200 nM
Response (nm) [2]: 0.0826 nm
koff [2]: 0.0107 s⁻¹
kon [2]: 273 M⁻¹ s⁻¹

HSV2-gE_A248K V340W_gI (from UniProt P89475 21-416; P06764 21-256) (receptor)
Kd [1]: 0.001 nM
Response [1]: 0.0613 nm
Kd [2]: < 0.001 nM
Response (nm) [2]: 0.0613 nm
koff [2]: < 1e-07 s⁻¹
kon [2]: 3780 M⁻¹ s⁻¹

HSV2-gE_A248T F322A_gI (from UniProt P89475 21-416; P06764 21-256) (receptor)
Kd [1]: 7010 nM
Response [1]: 0.167 nm
Kd [2]: 7010 nM
Response (nm) [2]: 0.167 nm
koff [2]: 0.00629 s⁻¹
kon [2]: 897 M⁻¹ s⁻¹

HSV2-gE_A248T V340M_gI (from UniProt P89475 21-416; P06764 21-256) (receptor)
Kd [1]: 0.001 nM
Response [1]: 0.108 nm
Kd [2]: < 0.001 nM
Response (nm) [2]: 0.108 nm
koff [2]: < 1e-07 s⁻¹
kon [2]: 4440 M⁻¹ s⁻¹

HSV2-gE_A248T V340W_gI (from UniProt P89475 21-416; P06764 21-256) (receptor)
Kd [1]: 0.001 nM
Response [1]: 0.0605 nm
Kd [2]: < 0.001 nM
Response (nm) [2]: 0.0605 nm
koff [2]: < 1e-07 s⁻¹
kon [2]: 3020 M⁻¹ s⁻¹

HSV2-gE_A248T_gI (from UniProt P89475 21-416; P06764 21-256) (receptor)
Kd [1]: 12200 nM
Response [1]: 0.123 nm
Kd [2]: 12200 nM
Response (nm) [2]: 0.123 nm
koff [2]: 0.00574 s⁻¹
kon [2]: 470 M⁻¹ s⁻¹

HSV2-gE_R314P F322P_gI (from UniProt P89475 21-416; P06764 21-256) (receptor)
Kd [3]: 283 nM
Response [3]: 0.561 nm
koff [3]: 0.00356 s⁻¹
kon [3]: 12600 M⁻¹ s⁻¹

HSV2-gE_R314P P318D_gI (from UniProt P89475 21-416; P06764 21-256) (receptor)
Kd [3]: 222 nM
Response [3]: 0.306 nm
koff [3]: 0.00145 s⁻¹
kon [3]: 6520 M⁻¹ s⁻¹

HSV2-gE_R314P P318I_gI (from UniProt P89475 21-416; P06764 21-256) (receptor)
Kd [3]: 277 nM
Response [3]: 0.248 nm
koff [3]: 0.00223 s⁻¹
kon [3]: 8040 M⁻¹ s⁻¹

HSV2-gE_R314P P318R_gI (from UniProt P89475 21-416; P06764 21-256) (receptor)
Kd [3]: 317 nM
Response [3]: 0.371 nm
koff [3]: 0.00199 s⁻¹
kon [3]: 6270 M⁻¹ s⁻¹

HSV2-gE_R314P V340M_gI (from UniProt P89475 21-416; P06764 21-256) (receptor)
Kd [3]: 402 nM
Response [3]: 0.525 nm
koff [3]: 0.0046 s⁻¹
kon [3]: 11400 M⁻¹ s⁻¹

HSV2-gE_R314P V340R_gI (from UniProt P89475 21-416; P06764 21-256) (receptor)
Kd [3]: 459 nM
Response [3]: 0.351 nm
koff [3]: 0.00241 s⁻¹
kon [3]: 5260 M⁻¹ s⁻¹

HSV2-gE_R314P V340W_gI (from UniProt P89475 21-416; P06764 21-256) (receptor)
Kd [3]: 560 nM
Response [3]: 0.134 nm
koff [3]: 0.00355 s⁻¹
kon [3]: 6340 M⁻¹ s⁻¹

HSV34 (HSV2-gE_gI) (from UniProt P89475 21-416; P06764 21-256) (receptor)
Kd [4]: 116 nM
Relative Affinity (%) compared to control construct HSV34 [4]: 100%
koff [4]: 0.000541 s⁻¹
kon [4]: 3870 M⁻¹ s⁻¹

HSV40 (HSV2- gE_289_insert ADIGL_gI) (from UniProt P89475 21-416; P06764 21-256) (receptor)
Kd [4]: 628 nM
Relative Affinity (%) compared to control construct HSV34 [4]: 18%
koff [4]: 0.00519 s⁻¹
kon [4]: 8240 M⁻¹ s⁻¹

HSV41 (HSV2-gE_338_insert ARAA_gI) (from UniProt P89475 21-416; P06764 21-256) (receptor)
Kd [4]: 1600 nM
Relative Affinity (%) compared to control construct HSV34 [4]: 7%
koff [4]: 0.00309 s⁻¹
kon [4]: 2010 M⁻¹ s⁻¹

HSV42 (HSV2- gE_346_insert ADIT_gI) (from UniProt P89475 21-416; P06764 21-256) (receptor)
koff [4]: < 1e-07 s⁻¹
kon [4]: 5690 M⁻¹ s⁻¹

HSV43 (HSV2- gE_H245A_gI) (from UniProt P89475 21-416; P06764 21-256) (receptor)
koff [4]: < 1e-07 s⁻¹
kon [4]: 9410 M⁻¹ s⁻¹

HSV44 (HSV2- gE_H245K_gI) (from UniProt P89475 21-416; P06764 21-256) (receptor)
Kd [4]: 673 nM
Relative Affinity (%) compared to control construct HSV34 [4]: 17%
koff [4]: 0.00628 s⁻¹
kon [4]: 9550 M⁻¹ s⁻¹

HSV45 (HSV2- gE_P317R_gI) (from UniProt P89475 21-416; P06764 21-256) (receptor)
Kd [3]: 192 nM and 240 nM
Response [3]: 0.181 nm and 0.119 nm
koff [3]: 0.00137 s⁻¹ and 0.00156 s⁻¹
kon [3]: 7110 M⁻¹ s⁻¹ and 6520 M⁻¹ s⁻¹
Kd [4]: 1510 nM
Relative Affinity (%) compared to control construct HSV34 [4]: 8%
koff [4]: 0.00347 s⁻¹
kon [4]: 2340 M⁻¹ s⁻¹

HSV46 (HSV2- gE_P319A_gI) (from UniProt P89475 21-416; P06764 21-256) (receptor)
Kd [4]: 73.5 nM
Relative Affinity (%) compared to control construct HSV34 [4]: 158%
koff [4]: 0.000482 s⁻¹
kon [4]: 6630 M⁻¹ s⁻¹

HSV47 (HSV2- gE_P319R_gI) (from UniProt P89475 21-416; P06764 21-256) (receptor)
Kd [4]: 2550 nM
Relative Affinity (%) compared to control construct HSV34 [4]: 5%
koff [4]: 0.00355 s⁻¹
kon [4]: 1490 M⁻¹ s⁻¹

HSV48 (HSV2- gE_P319G_gI) (from UniProt P89475 21-416; P06764 21-256) (receptor)
Kd [4]: 700 nM
Relative Affinity (%) compared to control construct HSV34 [4]: 17%
koff [4]: 0.00556 s⁻¹
kon [4]: 8130 M⁻¹ s⁻¹

HSV49 (HSV2- gE_P319K_gI) (from UniProt P89475 21-416; P06764 21-256) (receptor)
Kd [4]: 1710 nM
Relative Affinity (%) compared to control construct HSV34 [4]: 7%
koff [4]: 0.00217 s⁻¹
kon [4]: 1340 M⁻¹ s⁻¹

HSV50 (HSV2- gE_P319T_gI) (from UniProt P89475 21-416; P06764 21-256) (receptor)
Kd [4]: 8.91 nM
Relative Affinity (%) compared to control construct HSV34 [4]: 1300%
koff [4]: 8.38e-05 s⁻¹
kon [4]: 9460 M⁻¹ s⁻¹

HSV51 (HSV2- gE_H245A-P319A_gI) (from UniProt P89475 21-416; P06764 21-256) (receptor)
koff [4]: < 1e-07 s⁻¹
kon [4]: 11000 M⁻¹ s⁻¹

HSV52 (HSV2- gE_H245A-P319R_gI) (from UniProt P89475 21-416; P06764 21-256) (receptor)
Kd [4]: 2530 nM
Relative Affinity (%) compared to control construct HSV34 [4]: 5%
koff [4]: 0.00304 s⁻¹
kon [4]: 1310 M⁻¹ s⁻¹

HSV53 (HSV2- gE_H245A-P319G_gI) (from UniProt P89475 21-416; P06764 21-256) (receptor)
Kd [4]: 807 nM
Relative Affinity (%) compared to control construct HSV34 [4]: 14%
koff [4]: 0.00349 s⁻¹
kon [4]: 4480 M⁻¹ s⁻¹

HSV54 (HSV2- gE_H245A-P319K_gI) (from UniProt P89475 21-416; P06764 21-256) (receptor)
Kd [4]: 883 nM
Relative Affinity (%) compared to control construct HSV34 [4]: 13%
koff [4]: 0.00284 s⁻¹
kon [4]: 3370 M⁻¹ s⁻¹

HSV55 (HSV2- gE_H245A-P319T_gI) (from UniProt P89475 21-416; P06764 21-256) (receptor)
Kd [4]: 201 nM
Relative Affinity (%) compared to control construct HSV34 [4]: 58%
koff [4]: 0.00105 s⁻¹
kon [4]: 5330 M⁻¹ s⁻¹

HSV56 (HSV2- gE_A337G_gI) (from UniProt P89475 21-416; P06764 21-256) (receptor)
Kd [4]: 98.9 nM
Relative Affinity (%) compared to control construct HSV34 [4]: 117%
koff [4]: 0.00082 s⁻¹
kon [4]: 8430 M⁻¹ s⁻¹

HSV57 (HSV2- gE_P319D_gI) (from UniProt P89475 21-416; P06764 21-256) (receptor)
Kd [4]: 9580 nM
Relative Affinity (%) compared to control construct HSV34 [4]: 1%
koff [4]: 0.00403 s⁻¹
kon [4]: 362 M⁻¹ s⁻¹

HSV58 (HSV2- gE_P319S_gI) (from UniProt P89475 21-416; P06764 21-256) (receptor)
Kd [4]: 116 nM
Relative Affinity (%) compared to control construct HSV34 [4]: 100%
koff [4]: 0.000604 s⁻¹
kon [4]: 5290 M⁻¹ s⁻¹

HSV59 (HSV2- gE_S338D_gI) (from UniProt P89475 21-416; P06764 21-256) (receptor)
Kd [4]: 890 nM
Relative Affinity (%) compared to control construct HSV34 [4]: 13%
koff [4]: 0.00128 s⁻¹
kon [4]: 1550 M⁻¹ s⁻¹

HSV60 (HSV2- gE_N241A_gI) (from UniProt P89475 21-416; P06764 21-256) (receptor)
Kd [4]: 81.9 nM
Relative Affinity (%) compared to control construct HSV34 [4]: 142%
koff [4]: 0.000727 s⁻¹
kon [4]: 8990 M⁻¹ s⁻¹

HSV61 (HSV2- gE_R320D_gI) (from UniProt P89475 21-416; P06764 21-256) (receptor)
Kd [4]: 2400 nM
Relative Affinity (%) compared to control construct HSV34 [4]: 5%
koff [4]: 0.0012 s⁻¹
kon [4]: 514 M⁻¹ s⁻¹

HSV62 (HSV2- gE_N241A-R320D_gI) (from UniProt P89475 21-416; P06764 21-256) (receptor)
Kd [4]: 4200 nM
Relative Affinity (%) compared to control construct HSV34 [4]: 3%
koff [4]: 0.00129 s⁻¹
kon [4]: 317 M⁻¹ s⁻¹

HSV63 (HSV2- gE_N241A-P319D_gI) (from UniProt P89475 21-416; P06764 21-256) (receptor)
koff [4]: < 1e-07 s⁻¹
kon [4]: 3720 M⁻¹ s⁻¹
